The values that follow come from patent publication US20040204561A1, “Peptide aggregates” (priority 2002, published 2004).

Primed or numbered codes have the meaning given here. Ends that are not written are not given here. bbDTPA = DTPA chelating ligand bonded through a carbon of its ethylene backbone; bbDTPA″ = DTPA chelating ligand bound through a backbone ethylene carbon

The nature of data set [1]: Relaxivity measurements in PBS (T1, inversion recovery). The data set is classed as physicochemical. The text has this:
First, solutions of EP 1272L (FW=2,243 Da) were concentrated and purified by centrifugation in a filter device with a nominal molecular weight limit of 300,000 Da. The formation of high molecular weight aggregates allowed EP1272L to be retained by the filter device. […] Third, SEC-LS column retention and light scattering measurements of EP1272L were consistent with a large species having a mass distribution of 4×10^6 to 13×10^6 Da, and a hydrodynamic radius in the range of 155 nm to 210 nm.
Relaxivity measurements were made in PBS. A relaxivity titration consisting of sequential additions of EP1272L (complexed to Gd(III)) to a tube containing approximately 0.6 mL of PBS was performed. Following each addition of EP1272, the sample was thoroughly mixed by manual agitation and the temperature allowed to equilibrate for 10 minutes at 37±2° C. prior to T1 determination. The longitudinal (T1) relaxation time was determined by use of the inversion recovery pulse sequence and fitting the intensity data to an exponential decay. Measurements at 20 MHz were made using a Bruker Minispec PC 120/125/Vts nuclear magnetic resonance process analyzer. The temperature was regulated with a Haake D8-GH circulating bath at 37±2° C. Measurements at 64.5 MHz were made using a Varian XL300 adjusted to a field strength of 1.5 T with a broad band variable temperature probe tuned to 64.5 MHz. The relaxivity of EP1272 at 0.5 T and 1.5 T were 24.9 mM^−1s^−1 and 21.0 mM^−1s^−1 respectively. The relaxivity of EP1593 at 0.5 T was assessed in a similar manner and was 19.9 mM^−1s^−1. The relaxivity of EP1594 was assessed in a similar manner at 0.5 T and was 22.0 mM^−1s^−1.

Data set [2] is described as follows: Aggregation / gel formation behaviour in aqueous solution. The data set is classed as physicochemical. The protocol:
EP1272L (0.0842 g) was suspended in 2 mL water. To this were added 160 μL 1N NaOH, bringing the pH of the solution to 7.5. The volume was taken to 5 mL with addition of water and the solution gently swirled until all solids were dissolved. The chelatables were monitored by titration using xylenol orange as an indicator for free gadolinium. Following titration, 86.4 μL of 241 mM stock solution of GdCl3 was added to the solution with stirring followed by 60 μL 1N NaOH. Low mass impurities were removed from the solution by centrifugation over a 0.02 μm anapore membrane (Vecta-Spin). This was followed by resuspension in 20 mL of water and filtration over a 5 μm (Durapore, low protein binding) syringe filter frit. At concentrations greater than 0.5 mM, EP1272L became a non-flowing viscous gel.
As described in Examples 1-8, a self-assembling peptide having the sequence AEAEAKAKAEAEAKAK (SEQ ID NO: 1) was chemically modified to include a metal binding moiety (an organic chelating ligand) via a glycine linker to the N-terminus of the peptide; see EP1272L in FIG. 3. Modified self-assembling peptides having the same metal binding moiety at the N-terminus and further including acidic moieties at the C-terminus of the peptide were also made (see EP 1593L and EP1594L in FIG. 3).

Data set [3] has as its target streptavidin magnetic beads (Streptomyces avidinii, UniProt P22629). Put plainly: Avidin affinity assay: capture by streptavidin magnetic beads, quantified by gadolinium ICP. The data set is classed as binding. Conditions: capture by streptavidin-coated beads, FIG. 8. The method, then: Two self-assembling peptides comprising target binding moieties were prepared (FIG. 7). EP1595 contained a C-terminal biotin target binding moiety; EP 1596 contained a C-terminal aromatic target binding moiety (phenylundecane).
EP1272L aggregates were targeted to avidin by incorporation of a biotinylated peptide (e.g., an assembling peptide containing a target binding moiety (EP1595)) into the aggregates. To 70 μL of a 1.54 mM stock solution of EP1272L was added varying amounts of EP1595. The pH was then reduced to 1.5 by addition of 1N HCl to induce mixing of the peptides. The solution was neutralized by addition of 1N NaOH and the volume brought to 500 μL with addition of water. Aggregates containing 20% biotinylated peptide (5:1 ratio of EP1272 to EP1595), 4% biotinylated-peptide (25:1 ratio), and 0.5% biotinylated peptide (200:1) were prepared.
EP1272L aggregates containing the phenylundecane substituted peptide, EP1596, in a 10:1 ratio were prepared as described above.
The three EP1595/EP1272 formulations, one EP1596/EP1272 formulation, and an EP1272 formulation were assayed for affinity to streptavidin magnetic beads. Each sample was diluted so as to maintain a constant ratio of biotinylated peptide and streptavidin binding sites in the assay. Solutions without biotin were treated as though they contained 0.5% EP1595. […] The extent of capture was quantified by gadolinium ICP.

streptavidin magnetic beads, sequence (P22629 25-183): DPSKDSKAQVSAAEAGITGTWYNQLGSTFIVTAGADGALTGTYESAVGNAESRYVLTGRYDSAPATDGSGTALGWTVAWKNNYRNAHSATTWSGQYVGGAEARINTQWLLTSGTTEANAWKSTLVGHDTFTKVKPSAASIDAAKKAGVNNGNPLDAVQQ

“EP1593: EP1593L complexed to Gd(III) (GAEAEAKAKAEAEAKAK)” showed a relaxivity in data set [1] (0.5 T (20 MHz), 37±2° C.) of 19.9 mM⁻¹ s⁻¹.
For “AEAEAKAKAEAEAKAK (Targeted aggregate peptide) [reference compound]”, the “aggregation behaviour (macroscopic membrane formation)” value (“aggregation behaviour” below) in data set [2] is listed as “tended to form macroscopic membranes”.
As for “EP1593L: self-assembling peptide having a covalently attached metal binding moiety (bbDTPA) and an acidic group at the C-terminus ({bbDTPA″}-GAEAEAKAKAEAEAKAK; also: acidic group at C-terminus, not given here)”, the “aggregation behaviour” value in data set [2] is recorded as “tended to aggregate, but did not form macroscopic membranes”.
Turning to “EP1594: EP1594L complexed to Gd(III) (GAEAEAKAKAEAEAKAK)”, the relaxivity in data set [1] (0.5 T (20 MHz), 37±2° C.) turned out to be 22.0 mM⁻¹ s⁻¹.
With “EP1272L: self-assembling peptide AEAEAKAKAEAEAKAK (SEQ ID NO: 1) with bbDTPA chelating ligand via a glycine linker at the N-terminus (bbDTPA-GAEAEAKAKAEAEAKAK)”, the relaxivity turned out to be 25 mM⁻¹ s⁻¹ in data set [1] (0.47 T) and 21 mM⁻¹ s⁻¹ in data set [1] (1.5 T (64.5 MHz), 37±2° C.). For the same substance, the “aggregation behaviour” value in data set [2] was “tended to aggregate, but did not form macroscopic membranes”. Moreover, the “concentration above which a non-flowing viscous gel forms” value in data set [2] (aqueous solution after complexing with Gd(III)) is given as “greater than 0.5 mM”. The “affinity for streptavidin beads” value in data set [3] is given as “substantially less affinity for streptavidin beads”.
Regarding “EP1272: EP1272L complexed to Gd(III) (GAEAEAKAKAEAEAKAK)”, the relaxivity in data set [1] (0.5 T (20 MHz), 37±2° C.) stood at 24.9 mM⁻¹ s⁻¹; in data set [1] (1.5 T (64.5 MHz), 37±2° C.), 21.0 mM⁻¹ s⁻¹.
For the substance “EP1594L: self-assembling peptide having a covalently attached metal binding moiety (bbDTPA) and an acidic group at the C-terminus ({bbDTPA″}-GAEAEAKAKAEAEAKAK; also: acidic group at C-terminus, not given here)”, the “aggregation behaviour” value in data set [2] is recorded as “tended to aggregate, but did not form macroscopic membranes”.
